Assay: yeast display, Sf9 membrane polyspecificity reagent, FACS + sequencing; frameworks hold sequencing errors
Method in brief: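 Synthetic nanobody libraries on Saccharomyces cerevisiae BJ5465 were galactose-induced for 36–48 hours, stained 1 hour at 4 °C with 10% biotinylated, detergent-solubilized Sf9 membrane reagent and enriched on streptavidin microbeads. FACS then separated cells into low and high (top ~1%) gates by anti-HA (expression) and streptavidin (reagent binding) fluorescence. Genes were colony-PCR amplified, MiSeq 2 × 250 sequenced and CDR-length filtered. A clone's polyreactivity label is that of its gate of origin.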

Sequence: QVQLVESGGGLVQAGGSLRLSCAASGRTFDSYVMGWYRQAPGKERELVAAISSRGGTYYADSVKGRFTISRDNAKNTVYLQMNSLKPEDTAVYYCAARIYRKYYRYDYWGQGTQVTVSS
- polyreactivity (PSR sort gate): high polyreactivity

Sequence: QVQLVESGGGLVQAGGSLRLSCAASGRTFDTYAMGWYRQAPWKERELVAAITRRTYYADSVKGRFTISRDNAKNSVYLQMNSLKPEDTAVYYCAVRFLRKWTSSRHYGYWGQGTQVTVSS
- polyreactivity (PSR sort gate): high polyreactivity

Sequence: QVQLVESGGGLVQAGGSLRLSCAASGRTFDVYAMGWYRPAPGKERELVATIRSDGSTTYADSVKGRFTISRDNAKNTDYLQLNSLKPEDTAVYYCAAERVGVFFRYDYWGQGTQVTVSS
- polyreactivity (PSR sort gate): low polyreactivity

Sequence: QVQLVESGGGLVQAGGSLRLSCAASGRTFDVYAMGWYRQAPGKERELVAAISWSGGGTYYADSVKGRFTISRDNAKNTVYLQLTSLNPADTAVYSCAAALTFALDPNRYTYSDYYYWGQGTQVTVSS
- polyreactivity (PSR sort gate): low polyreactivity

Sequence: QVQLVESGGGLVQAGGSLRLSCAASGRTFDYKAMGWYRQAPGKERELVAAIDVNGGDTYYADSVKGRFTISRDNAKNTVYLQMNSLKPEDTAVYYCAAERDARTDDYWGQGTQVTVSS
- polyreactivity (PSR sort gate): low polyreactivity

Sequence: QVQLVESGGGLVQAGGSLRLSCAASGRTFDYNTMGWYRQAPGKVRELVAAISASGGSTYYADSVKGRFTISRDNAKNTVDLPMNSLKPEDTAVYYCNTYAGVEYYHWGQGTQVTVSS
- polyreactivity (PSR sort gate): low polyreactivity

Sequence: QVQLVESGGGLVQAGGSLRLSCAASGRTFDYYAMGWYRQAPGKERELVAAISSSGGSTYYADSVKGRFTISRDNAKNTVYLQMNSLKPEDTEVYYCNAYAYRFNHIHHIYTTDGEYWGQGTQVTVSS
- polyreactivity (PSR sort gate): high polyreactivity

Sequence: QVQLVESGGGLVQAGGSLRLSCAASGRTFDYYAMGWYRQAPGKERELVAAITSGGSTYYADSVKGRFTISRDNAKNTDYLQMNSLKPEDTAVYYCAKSWALTRGYGSRYYVYRYDYWGQGTQVTVSS
- polyreactivity (PSR sort gate): low polyreactivity

Sequence: QVQLVESGGGLVQAGGSLRLSCAASGRTFEGNALGWYRQAPGKERELVAAITSGGRTNYADSVKGRFTISRDNAKNTVYLQMNSLKPEDTAVYYCAVETRDRSTYFPGQAYDYWGQGTQVTVSS
- polyreactivity (PSR sort gate): low polyreactivity

Sequence: QVQLVESGGGLVQAGGSLRLSCAASGRTFEGYAMGWYRQAPGKERELVAAISNSGGSTYYADSVKGRFTIARDNAKNTVYLQMNSLKPEDTAVYYCAALSRIPRYGYWGQGTQVTVSA
- polyreactivity (PSR sort gate): high polyreactivity

Sequence: QVQLVESGGGLVQAGGSLRLSCAASGRTFEHYAMGWYRQAPGKERELVAAINSSDGGTYYADSVKGRFTISRDNAKNTVYLQMNSLKPEDTAVYYCAAAEFGSVPGYEMDYWGQGTQVTVSS
- polyreactivity (PSR sort gate): low polyreactivity

Sequence: QVQLVESGGGLVQAGGSLRLSCAASGRTFENYAMGWYRQAPGKERELVAAISKSGGSTYYADSVKGRFTISRDNAKNTVYLQMNSLKPEDTAVYYCNARPGQSGARFGYWGQGTQVTVSS
- polyreactivity (PSR sort gate): high polyreactivity

Sequence: QVQLVESGGGLVQAGGSLRLSCAASGRTFENYVMGWYRQAPGKERELVPAITVSGGSTYYADSVKGRFTISRDIAKNTVYLQMNSLKPEDTAVYYCAADPNVLFSQKYYEPNDYWGQGTQVTVSS
- polyreactivity (PSR sort gate): low polyreactivity

Sequence: QVQLVESGGGLVQAGGSLRLSCAASGRTFERNALGWYRQAPGKEREFVAAITEIGGSTYYADSVKGRFTISRDNAMNTVYLQMNSLKPEDTAVYYCAKDGTYSPYDYWGQGTQVTVSS
- polyreactivity (PSR sort gate): low polyreactivity

Sequence: QVQLVESGGGLVQAGGSLRLSCAASGRTFESYGMGWYRQAPGKERELVAAITWSGGDTYYADSVKGRFTISRDNAKNTVYLQMNSLKPEDTAVYYCAKEQGLYSVSPYDYWGQGTQVTVSS
- polyreactivity (PSR sort gate): low polyreactivity

Sequence: QVQLVESGGGLVQAGGSLRLSCAASGRTFETNAMGWYRQAPGKERELVASINWSGGSTYYADSVKGRFTISRDNAKNTVYLQMNSLKPEDTAVFYCAADHSYWDWWSYYYWGQGTQVTVSS
- polyreactivity (PSR sort gate): low polyreactivity

Sequence: QVQLVESGGGLVQAGGSLRLSCAASGRTFETNAMGWYRQAPGKERELVASINWSGGSTYYADSVKGRFTISRDNAKNTVYLQMNSLKPEDTAVYYCAAEHSYWDWWSYYYWGQGTLVTVSS
- polyreactivity (PSR sort gate): low polyreactivity

Sequence: QVQLVESGGGLVQAGGSLRLSCAASGRTFEYNAMGWYRQAPGKEREFVAAITYSGGGTYYADSVKGRFTISRDNAKNTVYLQMNSLKPEDTAVYYCARERTRVHKHYYWGQGTQVTVSS
- polyreactivity (PSR sort gate): low polyreactivity

Sequence: QVQLVESGGGLVQAGGSLRLSCAASGRTFEYYAMGWYRPAPGKERELVAAITYSGDSTYYADSVKGRFTISRDNAKNTVYLQMNSLKPEDTAVYYCAADWSSLKDDYWGQGTQVTVSS
- polyreactivity (PSR sort gate): low polyreactivity

Sequence: QVQLVESGGGLVQAGGSLRLSCAASGRTFEYYAMGWYRQAPGKEREFVAAISRRGDSTYYADSVKGRFTISRDNAKNTVYLQMNSLKPEDTAVYYCAAKSYSARTKYYYWGQGTQVTVSS
- polyreactivity (PSR sort gate): high polyreactivity

Sequence: QVQLVESGGGLVQAGGSLRLSCAASGRTFEYYAMGWYRQAPGKERELVASISFGGGSTYADSVKGRFTISRDNAKNTVYLQMNSLKPEDTAVYYCAATGGWYKHWFDYWGQGTQVTVSS
- polyreactivity (PSR sort gate): low polyreactivity

Sequence: QVQLVESGGGLVQAGGSLRLSCAASGRTFFANAMGWYRQAPGKERELVAAITSNTGTTYYADSVKGRFTISRDNAKNTVYLQMNSLKPEDTAVYYCAARYTFRYEYWGQGTQVTVSS
- polyreactivity (PSR sort gate): high polyreactivity

Sequence: QVQLVESGGGLVQAGGSLRLSCAASGRTFFDYAMGWYRQAPGKERELVATIRGGGSTNYADSVKGRFTISRDNAKNTVYLQMNSLKPEDTAVYYCAVRRRWYFPQYRSGRSLDYWGQGTQVTVSS
- polyreactivity (PSR sort gate): high polyreactivity

Sequence: QVQLVESGGGLVQAGGSLRLSCAASGRTFFENAMGWYRQAPGKEREFVAAISYNGGSTYYADSVKGRFTISRDNAKNTVYLQMNSLKPEDTAVYYCAAEADGLRYDDNYWGQCTQVTVSS
- polyreactivity (PSR sort gate): low polyreactivity

Sequence: QVQLVESGGGLVQAGGSLRLSCAASGRTFFEYAMGWYRQAPGKERELVAIITNGATTNYADSVKGRFTISRDNAKNTVYLQMNSLKPEDTAVYYCAVAKWQPRRRKYYYWGQGTQVTVSS
- polyreactivity (PSR sort gate): high polyreactivity

Sequence: QVQLVESGGGLVQAGGSLRLSCAASGRTFFGYAMGWYRQAPGKERELVAAINWGGASTYYADSVKGRFTISRDNAKNTVYLQMNSLKPEDTAVYYCAADSVPSRPTYGRYDYWGQGTQVTVSS
- polyreactivity (PSR sort gate): low polyreactivity

Sequence: QVQLVESGGGLVQAGGSLRLSCAASGRTFFKYAMGWYRQAPGKERELVAAIRSGTSTYYADSVKGRFTISRDNAKNTVYLHMNSLKPEDTAVYYCAADWHSKIGKGYDYWGQGTQVTVSS
- polyreactivity (PSR sort gate): high polyreactivity

Sequence: QVQLVESGGGLVQAGGSLRLSCAASGRTFFKYAMGWYRQAPGKERELVAAISSVGSTYYADSVKGRFTISRDNAKNSVYLQMNSLKPEDTAVYYCAARKNRAYGYWGQGTQVTVSS
- polyreactivity (PSR sort gate): high polyreactivity

Sequence: QVQLVESGGGLVQAGGSLRLSCAASGRTFFPNAMGWYRPAPGKERELVAAITWRGGSTYYADSVKGRFTISRDNAKNTVYLQMNSLKPEDTAVYYCAARDNPRWPRYYRGRTYDYWGQGTQVTVSS
- polyreactivity (PSR sort gate): high polyreactivity

Sequence: QVQLVESGGGLVQAGGSLRLSCAASGRTFFPNEMGWYRQAPGKERELVAAITSAGSTNYADSVKGRFTISRDNEKTTVYLQMNSLKPEETAVYYCAAVYPPIHQRYIVDYWGQGTQETVSS
- polyreactivity (PSR sort gate): low polyreactivity

Sequence: QVQLVESGGGLVQAGGSLRLSCAASGRTFFPYAMGWYRQAPGKEREFVAAITKSDYSTYYADSVKGRFTISRDNAKNTVYLQKNSLKPEDNAVYYCNAGDTQIRFYYWGQGTQVTVSS
- polyreactivity (PSR sort gate): low polyreactivity

Sequence: QVQLVESGGGLVQAGGSLRLSCAASGRTFFPYAMGWYRQAPGKERELVAAISLDDDTTYYADSVKGRFTISRDNAKNTVYLQMNSLKPEDTAVYYCAARGTRVRSLYDYWGQGTQVTVSS
- polyreactivity (PSR sort gate): high polyreactivity

Sequence: QVQLVESGGGLVQAGGSLRLSCAASGRTFFPYAMGWYRQAPGKERELVAAITGSGSSTNYADSVKGRFTISRDNAKNTVYLQMTRLKPVDTAVYYCAKPYYRLEDYWGQGTQVTVSS
- polyreactivity (PSR sort gate): low polyreactivity

Sequence: QVQLVESGGGLVQAGGSLRLSCAASGRTFFPYAMGWYRQAPGKERELVARISRTTGRTYYADSVKGRFTISRDNAKNTVFLQMNSLKPEDTAVYYCNAEGFRASGGYVRFEYWGQGTQVTVSS
- polyreactivity (PSR sort gate): high polyreactivity

Sequence: QVQLVESGGGLVQAGGSLRLSCAASGRTFFPYPRGCYRQAPGTDREFFAAITWSGGSTTYADSVKGRFTISRDNAKNTVYLQMNSLKPEDTAVYYCNAGRRRSYSYDYWGQGTQVTVSS
- polyreactivity (PSR sort gate): low polyreactivity

Sequence: QVQLVESGGGLVQAGGSLRLSCAASGRTFFRYAMGWYRPAPGKERELVAAITRSGGSTYYADSVKGRFTISRDNAKNTVYLLMNSLKPEDTAVYYCAAPREAYSRGYDSWGQGTQVTVSS
- polyreactivity (PSR sort gate): high polyreactivity

Sequence: QVQLVESGGGLVQAGGSLRLSCAASGRTFFSNAMGWYRQAPGKERELVAAISNGDNTYFADSVKGRFTISRDNAKNTVYLQMNSLKPEDTAVYYCNTVRRSYWSWSTENSDYWGQGTQVTVSS
- polyreactivity (PSR sort gate): low polyreactivity

Sequence: QVQLVESGGGLVQAGGSLRLSCAASGRTFFTYAMGWYRQAPGKERELVAAITGSGGSTSYADSVKGRFTISRDNAKNTVYLQMNSLKPEDTAVYYCAADWQELEYDYWGQGTQVNVSS
- polyreactivity (PSR sort gate): low polyreactivity

Sequence: QVQLVESGGGLVQAGGSLRLSCAASGRTFFVNAMGGYRQAPGKERELVAAITWSGGSTSYADSVKGRFTISRDKAKNNVSLQLNSLKPEDTAVYYCAAEYYSYSHSYYYYGYEYWGQGTQVNVSS
- polyreactivity (PSR sort gate): high polyreactivity

Sequence: QVQLVESGGGLVQAGGSLRLSCAASGRTFFYNAMGWYRQAPGKERELVAAIDWSGDSTYYADSVKGRFTISRDNAKNTVYLQMNSLKPEDTAVYYCAADGGQVDDSATRLYYWGQGTQVTVSS
- polyreactivity (PSR sort gate): high polyreactivity

Sequence: QVQLVESGGGLVQAGGSLRLSCAASGRTFFYNTMGWYRQAPGKERELVAAISYRGGRTYYADSVKGRFTISRDNAKNTVYLQMNSLKPEDTAVYYCNAYSYGHYYWGQGTQVTVSS
- polyreactivity (PSR sort gate): high polyreactivity

Sequence: QVQLVESGGGLVQAGGSLRLSCAASGRTFFYNTMGWYRQAPGKERELVAAITSSGGRTSYADSVKGRFTISRDNAKNTVYLQMNSLKPEDTAVYYCAALYSYYSLYDDYDYWGQGTQVTVSS
- polyreactivity (PSR sort gate): high polyreactivity

Sequence: QVQLVESGGGLVQAGGSLRLSCAASGRTFFYYAMGWYRPAPGKERELVAGSTNYADSVKGRFTISRDNAKNTVYLQMNSLKPEETAVYYCNADPDDYWGQGTQVTVSS
- polyreactivity (PSR sort gate): low polyreactivity
